Reference: paper PMC4383860, “Crystal structure of human persulfide dioxygenase: structural basis of ethylmalonic encephalopathy” (Human Molecular Genetics, 2015)

Columns and labels:
[1] = molecular target: the molecule itself; experiment: native MS; non-denaturing electrospray soft-ionization MS; 15 µM hETHE1 in 15 mM ammonium acetate buffer (pH 7.5); cone voltage 80 V; self-association, dimer
[2] = molecular target: the molecule itself; experiment: SEC-MALS; printed as MALS (multi-angle laser light scattering) of hETHE1 after purification, two peaks; self-association
[3] = molecular target: the molecule itself; experiment: native MS + SEC-MALS; dimer to monomer ratio told for both methods together; self-association, dimer

B1: human ethylmalonic encephalopathy protein 1 (hETHE1), lacking its 20 residue N-terminal mitochondrial targeting sequence (enzyme, UniProt O95571 21-254, looked up)
chain: APILLRQMFEPVSCTFTYLLGDRESREAVLIDPVLETAPRDAQLIKELGLRLLYAVNTHCHADHITGSGLLRSLLPGCQSVISRLSGAQADLHIEDGDSIRFGRFALETRASPGHTPGCVTFVLNDHSMAFTGDALLIRGCGRTDFQQGCAKTLYHSVHEKIFTLPGDCLIYPAHDYHGFTVSTVEEERTLNPRLTLSCEEFVKIMGNLNLPKPQQIDFAVPANMRCGVQTPTA
modifications: Cys247 refined as cysteinyl sulfinic acid (CSD247) in the crystal; +30 Da seen only in the dimer by non-denaturing mass spectrometry
notes: the start at residue 21 is worked out from that statement; Printed masses: monomer 26 116 Da, dimer 52 232 Da; also called human persulfide dioxygenase; sulphur dioxygenase; not shown: His6, N-terminal, cleaved
[1]
  stoichiometry N: 2
[2]
  stoichiometry N: 4
[3]
  dimer to monomer ratio: ~10
